In patent US20240270857A1 (CHIA TAI TIANQING PHARMACEUTICAL GROUP, published 2024):

B1: hz84C4-1.1 (antibody, human IgG4 S228P, kappa, V domains shown)
VH: QVQLVQSGAEVKKPGASVKVSCKASGYFFTSYWMNWVRQAPGQGLEWMGMIHPYDSETRYAQKFQGRVTMTVDKSTSTVYMELSSLRSEDTAVYYCASSTTAFAYWGQGTLVTVSS
VL: DIQMTQSPSSLSASVGDRVTITCRASQDIGNALNWYQQKPGKAPKRLIYATSSLDPGVPSRFSGSRSGTDFTLTISSLQPEDFATYYCLQYASSPYTFGQGTKVEIKR
notes: Humanized, human IgG4 / kappa
B2: hz84C4-1.2 (antibody, human IgG4 S228P, kappa, V domains shown)
VH: QVQLVQSGAEVKKPGASVKVSCKASGYFFTSYWMNWVRQAPGQGLEWMGYIHPYDSETRYAQKFQGRVTMTVDKSTSTVYMELSSLRSEDTAVYYCASSTTAFAYWGQGTLVTVSS
VL: DIQMTQSPSSLSASVGDRVTITCRASQDIGNALNWYQQKPGKAPKRLIYATSSLDPGVPSRFSGSRSGTDFTLTISSLQPEDFATYYCLQYASSPYTFGQGTKVEIKR
notes: Humanized, human IgG4 / kappa
B3: hz84C4-1.3 (antibody, human IgG4 S228P, kappa, V domains shown)
VH: QVQLVQSGAEVKKPGASVKVSCKASGYFFTSYWMNWVRQAPGQGLEWMGMIYPYDSETRYAQKFQGRVTMTVDKSTSTVYMELSSLRSEDTAVYYCASSTTAFAYWGQGTLVTVSS
VL: DIQMTQSPSSLSASVGDRVTITCRASQDIGNALNWYQQKPGKAPKRLIYATSSLDPGVPSRFSGSRSGTDFTLTISSLQPEDFATYYCLQYASSPYTFGQGTKVEIKR
notes: Humanized, human IgG4 / kappa
B4: hz84C4-1.4 (antibody, human IgG4 S228P, kappa, V domains shown)
VH: QVQLVQSGAEVKKPGASVKVSCKASGYYFTSYWMNWVRQAPGQGLEWMGMIHPYDSETRLAQKFKGRVTMTVDKSTSTVYMELSSLRSEDTAVYYCASSTTAFAYWGQGTLVTVSS
VL: DIQMTQSPSSLSASVGDRVTITCRASQDIGNALNWYQQKPGKAPKRLIYATSSLDPGVPSRFSGSRSGTDFTLTISSLQPEDFATYYCLQYASSPYTFGQGTKVEIKR
notes: Humanized, human IgG4 / kappa

Tests used:
[1] = target: T1, IL-36R naturally expressed on OVCAR8 cells and on normal human epidermal keratinocytes (NHK cells) (human, UniProt Q9HB29 20-575); test: cell-based or functional assay
T1 sequence (looked up): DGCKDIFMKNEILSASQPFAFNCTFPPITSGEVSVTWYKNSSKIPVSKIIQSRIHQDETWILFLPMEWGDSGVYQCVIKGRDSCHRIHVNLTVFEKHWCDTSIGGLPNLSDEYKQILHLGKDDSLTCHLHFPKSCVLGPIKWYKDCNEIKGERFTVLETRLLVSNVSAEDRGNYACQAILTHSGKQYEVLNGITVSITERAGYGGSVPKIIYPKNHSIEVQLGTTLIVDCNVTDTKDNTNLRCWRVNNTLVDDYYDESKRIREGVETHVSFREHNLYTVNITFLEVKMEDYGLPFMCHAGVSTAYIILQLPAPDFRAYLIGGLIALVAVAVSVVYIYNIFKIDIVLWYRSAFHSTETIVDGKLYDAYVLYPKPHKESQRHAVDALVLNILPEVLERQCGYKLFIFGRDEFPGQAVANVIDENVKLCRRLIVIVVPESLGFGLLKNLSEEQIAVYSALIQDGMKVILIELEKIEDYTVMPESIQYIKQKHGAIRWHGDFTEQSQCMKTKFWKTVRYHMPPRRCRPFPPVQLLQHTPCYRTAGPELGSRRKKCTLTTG

[2] = target: T2, Human IL-1Rrp2/IL-1R6 protein, His Tag (ACROBiosystems, IL2-H52H6) (human, UniProt Q9HB29 20-335); test: BLI (ForteBio Octet), antibody on ProA sensor, 1:1 model
T2 construct: Bought protein; the soluble protein is likely only the extracellular part; also called hIL-36R; human IL36R antigen; not shown: His tag
T2 sequence: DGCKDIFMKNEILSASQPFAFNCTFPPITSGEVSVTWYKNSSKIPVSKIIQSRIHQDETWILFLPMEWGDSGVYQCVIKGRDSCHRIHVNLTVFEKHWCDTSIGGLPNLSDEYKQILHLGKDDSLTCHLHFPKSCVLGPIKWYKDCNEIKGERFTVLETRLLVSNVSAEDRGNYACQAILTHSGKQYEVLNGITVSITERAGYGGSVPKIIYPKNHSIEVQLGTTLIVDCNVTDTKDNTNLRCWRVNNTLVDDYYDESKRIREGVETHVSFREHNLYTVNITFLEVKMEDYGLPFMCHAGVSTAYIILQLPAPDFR
Procedure: The affinity of anti-IL-36R antibodies to CynoIL36R-ECD mFc and human IL-1Rrp2/IL-IR6 protein, His Tag (ACROBiosystems, IL2-H52H6) was measured by a ForteBio molecular interaction instrument. […] And then the biosensor was used to bind CynoIL36R-ECD mFc or human IL-1Rrp2/IL-1R6 protein, His Tag which was diluted by a gradient (the initial concentration was 200 nM, 2-fold gradient dilution), the response signals were detected in real time using a Fortebio molecular interaction instrument (SARTORIUS, octet red 96e), and association and dissociation curves were obtained. After the completion of dissociation in each cycle, the biosensor was regenerated for the next capture; the procedure was repeated until the affinity of the different anti-IL-36R antibodies for IL-36R was determined. The resulting data were analyzed by Fortebio Data Analysis 11.0 software in a 1:1 (Langmuir) binding model to determine kₐ (kₒₙ) and kd (koff) values, and the dissociation constant KD was calculated by KD=kd/kₐ. The detection method essentially followed the manufacturer's recommendations, and more information could be found at www.fortebio.com.
Affinity, binding and blocking assays for humanized antibodies hz72C1-1.1, hz72C1-1.2, hz72C1-1.3, hz72C1-2.1, hz72C1-2.2 and hz72C1-2.3 as well as hz84C4-1.1, hz84C4-1.2, hz84C4-1.3, hz84C4-1.4, hz84C4-1.5, hz84C4-2.1, hz84C4-2.2, hz84C4-2.3, hz84C4-2.4 and hz84C4-2.5 were performed according to the methods of Example 4, Example 5. Example 6, Example 7 and Example 8.

| Binder | IC50 (M); hIL36α; IL-8 production [1] [M] | IC50 (M); hIL36αβγ; IL-8 production [1] [M] | IC50 (M); hIL36β; IL-8 production [1] [M] | IC50 (M); hIL36γ; IL-8 production [1] [M] | Maximum inhibition rate %; hIL36α; IL-8 production [1] [%] | Maximum inhibition rate %; hIL36αβγ; IL-8 production [1] [%] | Maximum inhibition rate %; hIL36β; IL-8 production [1] [%] | Maximum inhibition rate %; hIL36γ; IL-8 production [1] [%] | Kd [2] [pM] | koff [2] [s⁻¹] | kon [2] [M⁻¹ s⁻¹] |
| --- | --- | --- | --- | --- | --- | --- | --- | --- | --- | --- | --- |
| B1 | 6.38e-12 | 6.51e-12 | 7.61e-12 | 4.77e-12 | 99.7 | 99.9 | 99.3 | 99.6 | 958 | 0.000102 | 107000 |
| B2 | 8.5e-12 | 7.75e-12 | 1.6e-12 | 8.99e-12 | 99.1 | 99.2 | 98.9 | 99.5 | 1610 | 0.000161 | 100000 |
| B3 |  | 5.33e-12 |  | ~6.46e-12 | 20.6 | 44.2 | 21.8 | 59.5 | 527 | 3.26e-05 | 61900 |
| B4 | 1.42e-11 | 1.12e-11 | 1.46e-11 | 7.75e-12 | 99.5 | 98.9 | 98.5 | 99.4 | 1980 | 0.000236 | 119000 |
